Data taken from PMC10427625, “Structural basis for negative regulation of the Escherichia coli maltose system” (Nature Communications, 2023).

Target: the molecule itself
Assay: SEC; Superose 6 Increase 10/300 GL, 4 °C; MalT pre-incubated at 20 °C for 20 min in buffer I; run in buffer E with 1 mM maltotriose and 0.4 mM ATP; self-association of MalT

| Protein | binding result |
| --- | --- |
| MalT-E140A, N-terminally His-tagged (natural protein, Escherichia coli, UniProt P06993 1-901, looked up, MalT of Escherichia coli, variant of plasmid pOM206 made by site-directed mutagenesis; source: E. coli BL21 (DE3) ΔmalT220, purified (Ni Sepharose, gel filtration)) MLIPSKLSRPVRLDHTVVRERLLAKLSGANNFRLALITSPAGYGKTTLISQWAAGKNDIGWYSLDEGDNQQERFASYLIAAVQQATNGHCAICETMAQKRQYASLTSLFAQLFIELAEWHSPLYLVIDDYHLITNPVIHASMRFFIRHQPENLTLVVLSRNLPQLGIANLRVRDQLLEIGSQQLAFTHQEAKQFFDCRLSSPIEAAESSRICDDVSGWATALQLIALSARQNTHSAHKSARRLAGINASHLSDYLVDEVLDNVDLATRHFLLKSAILRSMNDALITRVTGEENGQMRLEEIERQGLFLQRMDDTGEWFCYHPLFGNFLRQRCQWELAAELPEIHRAAAESWMAQGFPSEAIHHALAAGDALMLRDILLNHAWSLFNHSELSLLEESLKALPWDSLLENPQLVLLQAWLMQSQHRYGEVNTLLARAEHEIKDIREDTMHAEFNALRAQVAINDGNPDEAERLAKLALEELPPGWFYSRIVATSVLGEVLHCKGELTRSLALMQQTEQMARQHDVWHYALWSLIQQSEILFAQGFLQTAWETQEKAFQLINEQHLEQLPMHEFLVRIRAQLLWAWARLDEAEASARSGIEVLSSYQPQQQLQCLAMLIQCSLARGDLDNARSQLNRLENLLGNGKYHSDWISNANKVRVIYWQMTGDKAAAANWLRHTAKPEFANNHFLQGQWRNIARAQILLGEFEPAEIVLEELNENARSLRLMSDLNRNLLLLNQLYWQAGRKSDAQRVLLDALKLANRTGFISHFVIEGEAMAQQLRQLIQLNTLPELEQHRAQRILREINQHHRHKFAHFDENFVERLLNHPEVPELIRTSPLTQREWQVLGLIYSGYSNEQIAGELEVAATTIKTHIRNLYQKLGVAHRQDAVQHAQQLLKMMGYGV | binds |
| MalT-N169A, N-terminally His-tagged (natural protein, Escherichia coli, UniProt P06993 1-901, looked up, MalT of Escherichia coli, variant of plasmid pOM206 made by site-directed mutagenesis; source: E. coli BL21 (DE3) ΔmalT220, purified (Ni Sepharose, gel filtration)) MLIPSKLSRPVRLDHTVVRERLLAKLSGANNFRLALITSPAGYGKTTLISQWAAGKNDIGWYSLDEGDNQQERFASYLIAAVQQATNGHCAICETMAQKRQYASLTSLFAQLFIELAEWHSPLYLVIDDYHLITNPVIHESMRFFIRHQPENLTLVVLSRNLPQLGIAALRVRDQLLEIGSQQLAFTHQEAKQFFDCRLSSPIEAAESSRICDDVSGWATALQLIALSARQNTHSAHKSARRLAGINASHLSDYLVDEVLDNVDLATRHFLLKSAILRSMNDALITRVTGEENGQMRLEEIERQGLFLQRMDDTGEWFCYHPLFGNFLRQRCQWELAAELPEIHRAAAESWMAQGFPSEAIHHALAAGDALMLRDILLNHAWSLFNHSELSLLEESLKALPWDSLLENPQLVLLQAWLMQSQHRYGEVNTLLARAEHEIKDIREDTMHAEFNALRAQVAINDGNPDEAERLAKLALEELPPGWFYSRIVATSVLGEVLHCKGELTRSLALMQQTEQMARQHDVWHYALWSLIQQSEILFAQGFLQTAWETQEKAFQLINEQHLEQLPMHEFLVRIRAQLLWAWARLDEAEASARSGIEVLSSYQPQQQLQCLAMLIQCSLARGDLDNARSQLNRLENLLGNGKYHSDWISNANKVRVIYWQMTGDKAAAANWLRHTAKPEFANNHFLQGQWRNIARAQILLGEFEPAEIVLEELNENARSLRLMSDLNRNLLLLNQLYWQAGRKSDAQRVLLDALKLANRTGFISHFVIEGEAMAQQLRQLIQLNTLPELEQHRAQRILREINQHHRHKFAHFDENFVERLLNHPEVPELIRTSPLTQREWQVLGLIYSGYSNEQIAGELEVAATTIKTHIRNLYQKLGVAHRQDAVQHAQQLLKMMGYGV | binds |
